Measured values as given in patent US12234475B2, “Compositions and methods for therapeutic delivery” (GenVivo, Inc., priority 2021, dated 2025).

System: mouse splenocytes
Assay: IFN-γ production by ELISA after stimulating mouse splenocytes with IL-12 containing conditioned media
Format: cell-based
Conditions: summary, compared with commercial IL-12
Protocol: Functionality of mIL-12 was examined by incubating mouse splenocytes with mIL-12 and measuring INF-γ. About 2×10^6 mouse splenocytes were stimulated with either commercial recombinant mouse IL-12 (rIL-12) or the CM from mIL-12 retroviral vector transduced and stably expressing A375 cells for 48 hours. Following stimulation, the CM from each culture was collected and measured for IFN-γ production by ELISA (FIG. 5).
Next, CT26, murine colorectal carcinoma cell line was transduced with the mIL-12 retroviral vector and examined whether or not secreted mIL-12 can produce IFN-γ and activate inflammatory genes from immune cells. About 2×10^6 mouse splenocytes were stimulated with either commercial rIL-12 or the CM from mIL-12 expressing CT26 cells at the concentration of 2 ng/mL for 48 hours. Following stimulation, the supernatant and cells from each group were collected and analyzed for the production of IFN-γ via ELISA and the expression of inflammatory genes via qPCR. […] Some preliminary animal studies were performed by implanting 1.5×10^5 CT26 cells stably expressing luciferase gene or CT26 cells stably expressing luciferase and mIL-12 gene from the retroviral vector cells into the right shoulder flank. […] Bio-luminescence images of animals implanted with either CT26 expressing luciferase or luciferase and mIL-12 tumor cells are shown in FIG. 12. […]

B1: mIL-12: mouse IL-12 heterodimer of P40 and P35 secreted by cells transduced with the mIL-12 retroviral vector (protein, UniProt P43432 23-335; P43431 23-215, looked up)
Interleukin-12 subunit beta: MWELEKDVYVVEVDWTPDAPGETVNLTCDTPEEDDITWTSDQRHGVIGSGKTLTITVKEFLDAGQYTCHKGGETLSHSHLLLHKKENGIWSTEILKNFKNKTFLKCEAPNYSGRFTCSWLVQRNMDLKFNIKSSSSSPDSRAVTCGMASLSAEKVTLDQRDYEKYSVSCQEDVTCPTAEETLPIELALEARQQNKYENYSTSFFIRDIIKPDPPKNLQMKPLKNSQVEVSWEYPDSWSTPHSYFSLKFFVRIQRKKEKMKETEEGCNQKGAFLVEKTSTEVQCKGGNVCVQAQDRYYNSSCSKWACVPCRVRS
Interleukin-12 subunit alpha: RVIPVSGPARCLSQSRNLLKTTDDMVKTAREKLKHYSCTAEDIDHEDITRDQTSTLKTCLPLELHKNESCLATRETSSTTRGSCLPPQKTSLMMTLCLGSIYEDLKMYQTEFQAINAALQNHNHQQIILDKGMLVAIDELMQSLNHNGETLRQKPPVGEADPYRVKMKLCILLHAFSTRVVTINRVMGYLSSA
T-cell activation and IFN-γ production in vitro: as functionally effective as commercial IL-12
